Reference: PMC4426023 (Cell reports, 2015)

T1: DOT1L repeat motif (Sites 2 and 3, aa. 863–900) (UniProt Q8TEK3 863-900)
T1 chain (looked up): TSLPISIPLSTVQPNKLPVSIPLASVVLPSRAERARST


Key:
[1] = target: DOT1L Site 1 peptide, fluorescently tagged (UniProt Q8TEK3); assay: fluorescence polarisation
[2] = target: DOT1L Site 2 peptide, fluorescently tagged (UniProt Q8TEK3); assay: fluorescence polarisation
[3] = target: T1, DOT1L repeat motif (Sites 2 and 3, aa. …); assay: SEC

DOT1L Site 1 peptide, fluorescently tagged, sequence (Q8TEK3 628-653): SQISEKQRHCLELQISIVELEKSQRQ

| Kd [1] | fold weaker affinity than DOT1L (Site 3) [2] | stoichiometry N [3] | Molecule |
| --- | --- | --- | --- |
| > 2000 nM | 17 fold | – | MBP-AF9 AHD (WT) (domain or fragment) |
| – | – | 2 | AF9 ANC1 homology domain (aa. 499–568) (domain or fragment, UniProt P42568 499-568, looked up) CDKAYLDELVELHRRLMTLRERHILQQIVNLIEETGHFHITNTTFDFDLCSLDKTTVRKLQSYLETSGTS |
